Test results as given in US20190153103A1 (AbbVie / Abbott, published 2019).
Substitutions are numbered along the chain they refer to.

T1: hBMPR1B-His (human BMPR1B extracellular domain, residues K14 to R126, with C-terminal 9x-Histidine tag) (human, UniProt O00238 14-126)
T1 construct: Residues K14-R126 are counted on the hBMPR1B ORF (NM_001203); The IgK signal peptide of the vector is left out; also called hBMPR1B-CHis; human BMPR1B-his
T1 sequence: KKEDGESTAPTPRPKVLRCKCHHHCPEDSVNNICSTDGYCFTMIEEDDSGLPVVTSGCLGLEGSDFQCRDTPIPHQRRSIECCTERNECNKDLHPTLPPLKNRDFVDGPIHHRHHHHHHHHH

T2: rat-his
T2 construct: soluble analyte of the Biacore runs; also called rSCRx91-his; rBMPR1B-CHis
T2 chain: T1 sequence with P12A, L51T, N102D, R113K

T3: human BMPR1B coated on MSD plates (construct not stated) (human, UniProt O00238 14-126, limits assumed)
T3 construct: also called BMPR1B receptor
T3 sequence: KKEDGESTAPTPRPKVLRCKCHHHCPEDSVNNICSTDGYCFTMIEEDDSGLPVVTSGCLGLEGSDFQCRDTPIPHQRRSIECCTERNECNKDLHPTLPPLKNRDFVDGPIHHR

T4: BMP4-his (human, UniProt P12644 293-408, limits assumed)
T4 construct: not shown: his tag
T4 sequence (looked up): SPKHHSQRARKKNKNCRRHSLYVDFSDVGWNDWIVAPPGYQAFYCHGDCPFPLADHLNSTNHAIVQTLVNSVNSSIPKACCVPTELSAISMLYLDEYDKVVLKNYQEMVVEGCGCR

B1: SC91.1 (murine anti-BMPR1B antibody) (antibody, V domains shown)
VH: QVQLQQPGAELVKPGASVKLSCKASGYTFTSYWMQWVKQRPGQGLEWIGEIDPSDNYTLYNQKFKGKATLTVDTSSSTAYMQLSSLTSEDSAVYYCARFGYYVDYWGLGTTLTVSS
VL: DVVMTQTPLSLPVSLGDQASIFCRSSQSLVHSTGNTYLHWYLQKPGQSPKLLIYKVSNRFSGVPDRFSGSGSGTDFTLKISRVEAEDLGVYFCSQSTHVPFTFGSGTKLEIK
notes: Murine hybridoma antibody with a kappa light chain
B2: SC91.3 (murine anti-BMPR1B antibody) (antibody, V domains shown)
VH: B1 VH with N56S, Y95F, V103I, D104E, L108Q
VL: B1 VL with F22S
notes: Murine hybridoma antibody
B3: SC91.27 (murine anti-BMPR1B antibody) (antibody, V domains shown)
VH: B1 VH with L11V, S31N, N56R, L59M, T71I, Y95F, L108Q
VL: B1 VL with F22S, K50N
notes: Murine hybridoma antibody with the same VL as SC91.20
B4: SC91.19 (antibody, V domains shown)
VH: QIQLVQSGPELKKPGETVKISCKASGYTFTTYGMNWVKQAPGKGLKWMGWINTYSGVPSSANDFKGRFAFSLETSASTAYLQINNLKNEDTATYFCARSELRNWYFDVWGTGTTVTVSS
VL: SFVMTQTPKFLLVSAGDRVTITCKASQSVGNDVAWYQQKPGQSPKLLIYYASNRYTGVPDRFTGSGYGTDFTFTISTVQAEDLAVYFCQQDYSSPFTFGSGTKLEMK
B5: SC91.15 (murine anti-BMPR1B antibody) (antibody, V domains shown)
VH: QVQLQQPGAELVMPGASVKLSCKASGYTLTNYWMHWVKQRPGQGLEWIGDIDPSDTYTNYNHKFKGKATLTVDKSSSTAYMQLSSLTSEDSAVYYCARSGWDYFDSWGQGTTLTVSS
VL: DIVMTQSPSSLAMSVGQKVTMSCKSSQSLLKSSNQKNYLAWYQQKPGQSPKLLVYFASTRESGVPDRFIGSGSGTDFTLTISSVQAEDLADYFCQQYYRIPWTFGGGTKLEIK
notes: Murine hybridoma antibody
B6: SC91.11 (antibody, V domains shown)
VH: QVQLQQPGAELVKPGASVKLSCKASGYTFTTYWMHWVKQRPGRGLEWIGRIDPNSGGTKYNEKFKSKATLTVDKPSSTACMQLSSLTSEDSAVYYCASRRGDIDVWGTGTTVTVSS
VL: DIVMTQSQKFMSTSVGDRVSVTCKASQNVGTNVFWYQQKPGQSPKALIYAASYRYSGVPDRFTGSGSGTDFTLTISNVQSEDLADYFCQQYDSYPLTFGDGTKLELR
B7: SC91.9 (murine anti-BMPR1B antibody) (antibody, V domains shown)
VH: QVQLQQPGAELVKPGASVKLSCKASGYTFISYWMHWVKQRPGQGLEWIGMIHPNSGSTNYNESFKSKATLTVDKSSSTAYMQLSSLTSEDSAVYYCARDLLIATVVVTPYFAYWGQGTILTVSS
VL: DIQMTQTTSSLSASLGDRVTISCRASQDISNFLNWYQQKPDGTIKFLIYYTSRLHSGVPSRFSGSGSGTDYSLTIRNLEQEDIATYFCQQGNTLPYTFGGGTKLEIK
notes: Murine hybridoma antibody
B8: BMP2 fused to a human Fc fragment (Fc fusion, UniProt P12643 283-396, looked up)
chain: QAKHKQRKRLKSSCKRHPLYVDFSDVGWNDWIVAPPGYHAFYCHGECPFPLADHLNSTNHAIVQTLVNSVNSKIPKACCVPTELSAISMLYLDENEKVVLKNYQDMVVEGCGCR
notes: not shown: human Fc fragment
B9: hBMPR1B-Fc (human BMPR1B extracellular domain, residues K14 to R126, fused to human IgG2 Fc) (Fc fusion)
chain: T3 sequence
notes: also called BMPR1B fused to human Fc fragment; not shown: human IgG2 Fc protein

Biological target: T1, hBMPR1B-His (human BMPR1B extracellular …)
Experiment: ELISA

| ELISA | Binder |
| --- | --- |
| 1.17 | B1 |
| 0.883 | B2 |
| 0.855 | B3 |
| 1.46 | B4 |
| 1.19 | B5 |
| 0.791 | B6 |
| 1.41 | B7 |

Biological target: T5, BMPR1A-Fc (recombinant protein used in the screen 1 ELISA) (human, UniProt P36894 24-152, limits assumed)
T5 construct: also called human BMPR1A; not shown: Fc
T5 sequence (P36894 24-152 limits assumed): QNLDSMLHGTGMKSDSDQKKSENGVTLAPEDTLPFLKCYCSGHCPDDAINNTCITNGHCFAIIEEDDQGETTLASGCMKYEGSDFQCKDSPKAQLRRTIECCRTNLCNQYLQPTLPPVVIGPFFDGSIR
Experiment: ELISA

| ELISA | Binder |
| --- | --- |
| 0.031 | B1 |
| 0.035 | B2 |
| 0.043 | B3 |
| 0.121 | B4 |
| 0.055 | B5 |
| 0.117 | B6 |
| 0.056 | B7 |

Biological target: T6, irrelevant Fc-tagged protein
T6 construct: ELISA control; also called irrelevant Fc construct
Experiment: ELISA

| ELISA | Binder |
| --- | --- |
| 0.039 | B1 |
| 0.039 | B2 |
| 0.042 | B3 |
| 0.05 | B4 |
| 0.05 | B5 |
| 0.04 | B6 |
| 0.042 | B7 |

Biological target: B9
Experiment: ELISA

| ELISA | Binder |
| --- | --- |
| 0.483 | B1 |
| 0.423 | B2 |
| 0.417 | B3 |
| 0.737 | B4 |
| 0.829 | B5 |
| 0.387 | B6 |
| 0.551 | B7 |

Biological target: T7, Cyno-his (cynomolgus)
T7 construct: extracellular domain; soluble analyte of the Biacore runs; also called cSCRx91-his; cBMPR1B-CHis
Experiment: Biacore

| Kd [nM] | Binder |
| --- | --- |
| 5.1 | B1 |
| 0.503 | B2 |
| 2.56 | B3 |
| 0.947 | B5 |
| 11.1 | B6 |
| 0.153 | B7 |

Biological target: T2, rat-his
Experiment: Biacore

| Kd [nM] | Binder |
| --- | --- |
| 3.34 | B1 |
| 2.14 | B3 |
| 1.5 | B5 |
| 0.181 | B7 |

Biological target: T1, hBMPR1B-His (human BMPR1B extracellular …)
Experiment: Biacore

| Kd [nM] | Binder |
| --- | --- |
| 2.34 | B1 |
| 0.163 | B2 |
| 1.98 | B3 |
| 8.46 | B4 |
| 0.922 | B5 |
| 1.15 | B6 |
| 0.322 | B7 |

Biological target: T8, human BMPR1B overexpressed on the surface of HEK293T cells (N-terminal Asp-Lys epitope tag, … (human, UniProt O00238 14-502))
T8 construct: also called HEK293T cells overexpressing hBMPR1B; BMPR1B-expressing HEK293T cells
Experiment: flow cytometry

| Flow cytometry MFI | Binder |
| --- | --- |
| 5520 | B1 |
| 6840 | B2 |
| 6880 | B3 |
| 7250 | B4 |
| 5610 | B5 |
| 7330 | B6 |
| 5480 | B7 |

Biological target: T9, rat BMPR1B overexpressed on the surface of HEK293T cells (N-terminal Asp-Lys epitope tag, … (rat, UniProt A0A8I6A0G0 62-550))
T9 construct: whole, on cells
Experiment: flow cytometry

| Flow cytometry MFI | Binder |
| --- | --- |
| 5080 | B1 |
| 5840 | B2 |
| 5970 | B3 |
| 470 | B4 |
| 4590 | B5 |
| 4660 | B6 |
| 5270 | B7 |

Biological target: T2, rat-his
Experiment: Biacore, 200 nM

| binding result | Binder |
| --- | --- |
| binds | B2 |
| binds | B4 |
| binds | B6 |

Biological target: T8, human BMPR1B overexpressed on the …
Experiment: cell-based or functional assay

| % live, Fab-saporin, 100pM [%] | Binder |
| --- | --- |
| 9.53 | B1 |
| 9.34 | B2 |
| 11.9 | B3 |
| 14.3 | B4 |
| 11.9 | B5 |
| 15.5 | B6 |
| 9.44 | B7 |

Biological target: T9, rat BMPR1B overexpressed on the surface …
Experiment: cell-based or functional assay

| % live, Fab-saporin, 100pM [%] | Binder |
| --- | --- |
| 15.6 | B1 |
| 16 | B2 |
| 17.9 | B3 |
| 102 | B4 |
| 18.5 | B5 |
| 68.7 | B6 |
| 14.7 | B7 |

Biological target: T3, human BMPR1B coated on MSD plates …
Experiment: MSD ELISA, BMP2 blocked
Set-up: concentration or dose not given beside the values

| % inhibition [%] | Binder |
| --- | --- |
| 38 | B1 |
| 32 | B4 |
| 11 | B5 |
| 50 | B7 |

Biological target: T3, human BMPR1B coated on MSD plates …
Experiment: MSD ELISA, BMP4 blocked
Set-up: concentration or dose not given beside the values

| % inhibition [%] | Binder |
| --- | --- |
| 75 | B1 |
| 61 | B4 |
| 92 | B5 |
| 93 | B7 |

Biological target: T1, hBMPR1B-His (human BMPR1B extracellular …)
Experiment: SPR, Biacore T200: BMP2-Fc captured on anti-human capture chip, BMPR1B-his injected at 2.5-40 µM, 1:1 model

| Kd [nM] | Binder |
| --- | --- |
| 61000 | B8 |

Biological target: T4, BMP4-his
Experiment: SPR, Biacore T200: BMPR1B-Fc captured on anti-human capture chip, BMP4-his injected at 31.3-500 nM, 1:1 model

| Kd [nM] | Binder |
| --- | --- |
| 1.2 | B9 |
